{"source": "the DeepSol protein solubility set", "assay": "soluble on expression in E. coli; label from the status in PepcDB or PDB records", "data": [{"sequence": "MISCFNRQCPTGTISYTVRAGDTLYLIAGRFNTTVEAILAANPGIVPERLYIGQVICVPYAQPPQPACPIGTSPYEIKSGDTLSKIAAKFNTTVGDILNANPGIIPEKLYVGQKICIPQPKSENPGCPTMNYYVIQKGDTLPAIAKIFNVTVQQLINANPGINPNALYVGQVICIPVAPSSVRIIVSIAAKTLSLYRDGRLVKSYPVATGKPTTPTPRGTFTIINKQVNPGGPFGTRWMGLSQPHYGIHGTNNPASIGTAASNGCIRMYNEDVNELFNLVSVGTPVTIY", "values": [{"measurement": "soluble on expression in E. coli", "value": "soluble"}]}, {"sequence": "MGSDKIHHHHHHMSTKHAKAAEKFLENPVMAAWHNETLWMVRAKRDKMSKEVPEWEELRDKACALKLYSNSHLEELLLEFEKNATANGAIVHWAKDAEEYRAIVYEILSSHGVKHFVKSKSMLAEECELNPFLIEKGIDVVESDLGERILQLMNLAPSHIVLPAIHIKREQVGELFEKEMGTEKGNFDPTYLTHAARKNLRNIFLNAEAAMTGANFAVASTGDIVVCTNEGNADMGTSCPTLNIAAFGMEKIVPDMEALGVFTRLLARSATGQPITTYTSQYRNPREGGEYHIIIVDNGRSALLAHPDHIKTLNCIRCGACMNTCPVYRRSGGYSYTYFIPGPIGINLGMAHDPEKYYDNLSACSLCMSCSDVCPAKVDLAEQIYKWRQDLDKIGKANTGKKIMSGGMKVLMDHPTLFNAALWAAPVVNHLPRFMKYNDLDAWGKGRELPKFAGESFNEMWKKNKVQGKEENK", "values": [{"measurement": "soluble on expression in E. coli", "value": "not soluble"}]}, {"sequence": "MAHHHHHHMLNALGITSPRHDALIAKFLKAMAVEGGASEATKRDEAVDAARFVYVFSTVWRAAVTHRTPRSPVSTRVSAPPRSPPAAQQHGNSPDGATMRHAYSREVSCRGAPPSHMKAAPATEVGSSGGSGSAVSARSSSSPSAVWSSSEGGEGAAHSHTESASPLTSCGGGDERRSDAAESDADFLRTNISDASSSIPDSSEKPQAGVRSEELSPMSVEPSAGLDPSPEPCNPGEPVIITSARSSVTPRTHHCSPFAAASRLGSASVSRSRRMSSSLRVIPSDSHLLSSTTSRELKRATKRVPGGLMRECTFKPVINSVYEQSPVSFSSTAIVQKRKPASTAPPTFQPNTQQFHQARDSLARWTRQPIKDNSDYRGEAAANPLATGVETAVRRMIAARQQRQRSQSPRPSLQKGSHHSAPAPQSTVRAPVAHPRKPLLYVDVDLPQGQRDRLALYTGDDVQDVAQRFSILHGLSESLCQRLETALTAELCALSVGKAA", "values": [{"measurement": "soluble on expression in E. coli", "value": "not soluble"}]}, {"sequence": "MGSDKIHHHHHHMEATTNNMKDVTGAELLICTIGHSTHPLEEFINLLKKNEVTHLLDVRTVPRSRHNPQFNKETLPDALGAIGIKYTHLSGLGGLRHARKDSINEGWRNASFRGYADYMQTQEFVENVNRVIELAAHDRCALMCAEAVPWRCHRSLIADALVVRGVRVEDIIDNHGRKPHSLTPWAQAEGVRIFYPAQQGRLI", "values": [{"measurement": "soluble on expression in E. coli", "value": "not soluble"}]}, {"sequence": "GMSDQRYNLRGVSASKEDVHNAIKNIDKGIFPKAFCKIIPDILGGDPEYCNIMHADGAGTKSSLAYMYWKETGDLSVWKGIAQDALIMNIDDLLCVGAVDNILVSSTIGRNKLLVPGEVISAIINGTDELLAELREMGVGCYATGGETADVGDLVRTIIVDSTVTCRMKRSDVIDNKNIQGGDVIVGLASSGQATYEKEYNGGMGSNGLTSARHDVFSKYLAKKYPESYDAAVPKELVYSGGLKLTDKIEELGIDAGKMVLSPTRTYAPVIKVLLDKLRSQIHGMVHCSGGAQTKVMHFVENKRVTKDNLFPIPPLFRTIQEQSGTDWSEMYKVFNMGHRMEIYIAPEHAEEVIGISKSFGIDAQIVGFVEEADKNELIIESEKGRFTY", "values": [{"measurement": "soluble on expression in E. coli", "value": "soluble"}]}, {"sequence": "MSLQFFDRKETMKFPSDFIEKYKDLLGAEAEEFFTSFDQEAVSAYRINPLKKQQKDYPDPIPGTPWGYYGKISGKSSDHATGLVYSQEPAAQMVAQVAAPSKGSRVLDLAAAPGGKSTHLLSYVDNTGLLVSNEIDFTRSKVLVENLERFGAKNVVVNHTSADKLAEVFKNYFDMIVFDGPCSGEGMFRKDPDAIQYWHKDYPSELAQLQKDILADGLKMLAPGGQLVYSTCTWSPEENEGVVAWILENYPDLELVAIPKLSGMSDGIDFPETARMYPHHFKGEGQFVAKFQDKRMPEQSCIKEGKTNLNKEQKQLWDDFVKKHLKLPLDGLLQVFGDNLYLLPRGLPDLSKVKIARNGLHLGIFKKKRFEPSFALGIALTSDEVVSSIELTQEQFAQYASGNVVTLDQTLENGWYQLLVDGNGFGFAKVIGNTLKNYYPKGLRFHEGHHHHHH", "values": [{"measurement": "soluble on expression in E. coli", "value": "soluble"}]}, {"sequence": "SLSRISPGNFSTNSYTSTIIKDVRFCLLLCRSLMEGWRITLLNEQEKTIFVDADACPVKDEILQTASEYEVQVLFVASFEHYQLSRSNEEKWKYVDPHKEAADLYIANHVKPGDIVVTQDIGLASLLLNRNVSVMSERGRLYKEDTIDFALEGRHFSGKQRRKGVYAKGPKKLNKEDRERFITLLQKILSNDEGILH", "values": [{"measurement": "soluble on expression in E. coli", "value": "not soluble"}]}]}
